Data: patent US20240400680A1 (SHANGHAI CELGEN BIO PHARMACEUTICAL, published 2024)

T1: full-length human TIGIT on the cell membrane (CHO-K-TIGIT cells; TIGIT-Jurkat cells) (human) (UniProt Q495A1)
T1 sequence (looked up): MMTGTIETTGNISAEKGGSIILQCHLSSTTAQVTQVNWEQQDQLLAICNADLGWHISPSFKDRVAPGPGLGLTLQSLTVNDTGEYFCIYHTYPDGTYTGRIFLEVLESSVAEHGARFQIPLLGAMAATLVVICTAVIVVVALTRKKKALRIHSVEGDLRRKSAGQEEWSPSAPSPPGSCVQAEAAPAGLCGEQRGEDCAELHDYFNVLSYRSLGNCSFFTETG

T2: full-length human TIGIT on the cell membrane (CHO-K-TIGIT cells; TIGIT-Jurkat cells) (human, UniProt Q495A1 22-244)
T2 construct: whole, on cells; Also used here for TIGIT on human PBMCs in the IFN-gamma assay; also called CHO-TIGIT
T2 sequence (looked up): T1 sequence (looked up)

T3: recombinant human TIGIT (Human TIGIT His, Sino Biological, 10917-H08H) (human, UniProt Q495A1 22-138)
T3 construct: range 1-138; Bought protein; also called recombinant human TIGIT antigen; recombinant human TIGIT protein; not shown: C-terminal histidine tag
T3 sequence (looked up): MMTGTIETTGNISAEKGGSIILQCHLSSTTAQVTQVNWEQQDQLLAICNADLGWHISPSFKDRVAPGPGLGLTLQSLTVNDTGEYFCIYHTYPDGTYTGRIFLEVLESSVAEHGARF

B1: human-mouse chimeric TIGIT monoclonal antibody 7103-07 (hFc) (antibody, from a related filing, V domains shown)
VH: EVQVVESGGGLVKPGGTLKLSCAASGFTFSTYAMSWVRQSPEQRLEWVAEISSGGSHTFYSDTVTGRFTISRDNAQNTLYLEMNSLRSEDTAMYYCARKTLDYYALDYWGQGTSVTVSS
VL: DVQITQSPSYLAASPGETITINCRASKSISKYLAWYQEKPGKTNKLLIYSGSRLQSGIPSKFSGSGYGTDFTLTISSLEPEDFAMYYCQQHNEYPWTFGGGTKVEIK
B2: human-mouse chimeric TIGIT monoclonal antibody 7103-01 (hFc) (antibody, from a related filing, V domains shown)
VH: QVQLQQPGAELVKPGASVKLSCKASGYTFISYNIYWVKQRPGQGLEWIGGVNPSNGNTNFNENFKSKATLTVDKSSSTAYMQLSSLTSDDSAVYFCTRGNYYGYEFAYWGQGTLVTVSA
VL: DIVMTQSHKFMSTSVGDRVSITCKASQHVSTAVAWYQQKPGQSPKLLIYSPSYRYTGVPDRFTGSGSGTDFTFTISSVQAEDLAVYYCQQHYSTPWTFGGGTKLEIK
B3: humanized anti-TIGIT monoclonal antibody P03479 (antibody, V domains shown)
VH: EVQVVESGGGLVKPGGSLRLSCAASGFTFSTYAMSWVRQAPGKGLEWVAEISSGGSHTFYADTVKGRFTISRDNAKNTLYLQMNSLRAEDTAVYYCARKTLDYYALDYWGQGTTVTVSS
VL: DVQITQSPSYLSASVGDRVTINCRASKSISKYLAWYQQKPGKAPKLLIYSGSRLQSGIPSRFSGSGYGTDFTLTISSLQPEDFATYYCQQHNEYPWTFGGGTKLEIK
notes: Only variable domains are tied to P03479 itself; HC1/LC1 of the fusion proteins derive from it
B4: humanized anti-TIGIT monoclonal antibody P03489 (antibody, V domains shown)
VH: QVQLVQSGAEVKKPGASVKVSCKASGYTFISYNIYWVRQAPGQGLEWMGGVNPSNGNTNFNENFQGRVTMTVDTSISTAYMELSRLRSDDTAVYYCTRGNYYGYEFAYWGQGTTVTVSS
VL: DIQMTQSPSSMSASVGDRVTITCKASQHVSTAVAWYQQKPGKAPKLLIYSPSYRYTGVPSRFSGSGSGTDFTFTISSVQPEDIATYYCQQHYSTPWTFGGGTKLEIK
notes: Only variable domains are tied to P03489 itself; HC2/LC2 of the fusion proteins derive from it

What was measured:
[1] = biological target: T1, full-length human TIGIT on the cell membrane (CHO-K-TIGIT cells; TIGIT-Jurkat cells) (human); experiment: cell-based or functional assay
[2] = biological target: recombinant human TIGIT (Human TIGIT His, Sino Biological, 10917-H08H) (human) (UniProt Q495A1); experiment: BLI (GATOR), antibody on human antibody capture probe, TIGIT-His 40-10 nM
[3] = biological target: T2, full-length human TIGIT on the cell …; experiment: flow cytometry on TIGIT-Jurkat cells
Procedure: The binding activity of the anti-TIGIT antibody-IL2 fusion proteins to TIGIT on the cell membrane was tested using flow cytometry. A Jurkat cell line stably expressing human TIGIT was first established. The full-length human TIGIT gene (Sinobio) was amplified by PCR and cloned into the mammalian cell expression vector pcDNA3.1 (Invitrogen), using Not I and Xba I as cloning enzymes. The TIGIT expression plasmid was transfected into Jurkat cells to construct a stable Jurkat cell line expressing TIGIT (TIGIT-Jurkat).
The flow cytometry study method for the binding of TIGIT antibody-IL2 fusion proteins to cell membrane-bound TIGIT is summarized as follows: FACS buffer (1×PBS+0.5% BSA solution) was prepared. The required number of TIGIT-Jurkat cells, about 1×10⁵ to 5×10⁵ cells per sample, was taken and incubated with HC1-IL2 wt/LC1 (ART-Ig) and HC1-IL2mut/LC1 (ART-Ig) diluted to a certain ratio in FACS buffer, approximately 100 μL, at 4° C. for 30 minutes. After washing the cells once with FACS buffer, they were resuspended in FITC-conjugated anti-human IgG (Abcam: 6854) diluted in FACS buffer and incubated at 4° C. for 30 minutes. Finally, after washing the cells with FACS buffer, they were resuspended in 200 μL of FACS buffer for analysis. The parent TIGIT antibody P03479 was used as a control.

[4] = biological target: T3, recombinant human TIGIT (Human TIGIT …); experiment: ELISA on recombinant human TIGIT protein

| Molecule | Kd [2] [nM] | koff [2] [s⁻¹] | kon [2] [M⁻¹ s⁻¹] | also measured |
| --- | --- | --- | --- | --- |
| Tiragolumab (antibody) |  |  |  | IFNγ release from PHA-activated PBMCs, increase [1]: 16% |
| B1 | 2.96 | 0.00169 | 573000 |  |
| B2 | 1.73 | 0.000951 | 549000 |  |
| B3 |  |  |  | EC50 [3]: 0.26 µg/mL |
| B4 |  |  |  | EC50 [4]: 0.5 nM |
